Target: human prolactin receptor (hPRLR) expressed on mouse BaF3 cells (BaF3/hPRLR cells) (human) (UniProt P16471)
Assay: cell-based or functional assay

Chain of human prolactin receptor (hPRLR) expressed on mouse BaF3 cells (BaF3/hPRLR cells) (human) (P16471 25-622): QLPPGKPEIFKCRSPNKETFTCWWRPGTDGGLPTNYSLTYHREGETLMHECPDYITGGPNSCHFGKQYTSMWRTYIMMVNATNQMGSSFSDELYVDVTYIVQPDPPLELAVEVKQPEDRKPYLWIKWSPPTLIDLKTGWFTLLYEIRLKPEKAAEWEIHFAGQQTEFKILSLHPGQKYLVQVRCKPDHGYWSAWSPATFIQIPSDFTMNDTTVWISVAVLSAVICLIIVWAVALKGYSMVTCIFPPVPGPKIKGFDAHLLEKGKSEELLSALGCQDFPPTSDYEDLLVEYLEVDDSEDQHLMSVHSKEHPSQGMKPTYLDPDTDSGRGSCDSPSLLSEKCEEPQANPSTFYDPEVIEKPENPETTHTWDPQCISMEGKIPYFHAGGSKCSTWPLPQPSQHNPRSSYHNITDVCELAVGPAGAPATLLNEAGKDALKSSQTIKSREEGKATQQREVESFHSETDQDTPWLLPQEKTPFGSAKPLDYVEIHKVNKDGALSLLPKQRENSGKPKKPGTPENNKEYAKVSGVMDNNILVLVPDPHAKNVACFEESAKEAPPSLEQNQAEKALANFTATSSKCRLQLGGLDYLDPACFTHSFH

EC50, growth of BaF3/hPRLR cells (positive control): 2.1 pM
Substance: human prolactin (hPRL, R&D System Inc.) (from UniProt P01236 29-227) (ligand)

From patent US20190010205A1
